The results in this text go back to the domain aggregation screens of Martell et al. (2025).

A short description of the series: soluble fraction after stress (log2 fold change); higher = more stays soluble; pooled small domains, quantitative proteomics. The settings on record: stress: 75 degC.
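Also: 20 min heating vs room temperature control held 20 min.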

As to “HMGNAQELQKKLEGLKGISGIEKLESDHYAEKYLVRITQPVDHKNPAAGTFTQRVIVAHVGFDRPTILVT”, the “soluble fraction (log2)” value was 0.51.
Under “HMGNHRNMSAEEEAAILAPFKARAEAGELVEISEIAKAYQSAVDHPISRGQIYFVLHRHGWRKV” stands -1.2.
For “HMGNIALAIARFREMIAEDPNLQPVRLHLAMALMADHQDEAARGQLEKLRSDQLPDDIRKIVDDALAALR”, the “soluble fraction (log2)” value was -1.46.
Turning to “HMGNIIITPNPASDFIKIISNSPIIKFGFYDIYGNTINKKFNDNSINISDLPVGMYLINLNERYFKLLK”, the “soluble fraction (log2)” value was -0.259.
Under “HMGNIITQEAAVKLAQDRVPNATLVKIEYDFDDGRPVYEGELREGRWEYEFEIDAATGEFLKWEKD” stands 0.0823; under “HMGNKWKPIILYLLSNGSMRFGMLNALIPTISKKVLTNQLKELENDGLLLRQSFAEIPPRVEYSLTEKA”, -2.31; under “HMGNLASGAYEQIKRRILSLEYLPGSILQERGLAEELGISRTPVREAIHRLSQEGWLKINSRKNIRVR”, -2.32.
Under “HMGNLASRVAEQLLDKMRGDSLVPGTRLPSEIAMAKHFGVSRTVMREAIARLKADGLLETRRGSGAFVLAT” stands -0.973.
“HMGNLEENFRLKAGTEDGAWEFIRYHLGKLPVVNESNGTAIVNAERQAFLLFDRMVAFHIQRGVMVPLSAP”: the “soluble fraction (log2)” value is -0.0214.
With “HMGNLVDGINKKLTHVRDSLPEGYTLDEFKSAFQQQYPAAYDAYEGDKGKQFDKWLGNVIQSLPKK”, the “soluble fraction (log2)” value came out at 0.0554.
Under “HMGNNSIDIKDVIYNLVEISQLQAFDIVKHFKTWENLVNKPDELDTVIDGDSDIVDRIKYKIKSLS” stands 0.344; under “HMGNQALSSVLSDIAGIGPVKTKELLRVYPDLDSLRQAPVEEVAKVKGIGRQLAQKIHDHFSSR”, -0.0292.
As for “HMGNRWENLISNKMIDDVDEELLRKYIAQAHDAGRIAISYTDRKTVLNQLELTDGDRLLNAGKVLFSD”, the figure is -0.392.
Under “HMGNTTEVLVATQDVKANTKIKESMFTTERVDTASLPDNYLSADSAKDVVGYYTYIGFTKGSVISKSNIAT” stands 0.625.
Turning to “HMGNVRSWKGWTSAGGTRVQMRQGDSINSMARRYGVPIQAIVAVNGIDDPAKVQPGQSVIIPTYVY”, the “soluble fraction (log2)” value was -0.29.
Under “HMGNWEQQLRSWADGELATGKQDILTTAVPAFERALIETALSHTNGRKRDAAELLGWGRNTLTRKLKELGM” stands -0.401; under “HMGNYEEAILAFEAAIKIDPKNADAYRKLAEAYEKTGDEDAALRTLETGAEATGDRELADLAEKKRQELDA”, -0.0773.
Under “HMGPASTGAHQLGLKPGDEVTHRAWGEGVVTSTTGEGDRAEAVVDFDAVGEKRLLLAWAPLER” stands 0.0111; under “HMGPDTVDRTRRFKWVDNEVVVNFGKNAGRTLRDLAENDPGFLRWIVRSDFSDEVRTIANDALMGKFPTRK”, -0.283; under “HMGPEAFPVPYVVDIELDRAIYVIEQSGFIVGQKLEANDNNVPRGFVISQNPPAGTKLGPESIVDLVVSS”, -1.16.
With “HMGPLDIAQLKSDFLGGDAQLARRAWDQLATKAGDEGRDFLISSLGSSDPQIRNRVALGIHES”, the “soluble fraction (log2)” value was determined as 0.069.
As for “HMGPLTMGQRIVRLRTQAGLSQDALAEQLGVSRQSVSKWETDGSVPDLDRLVKLSKVFGVTLDELVKG”, the figure is -0.202.
“HMGPPAVGAKLQVLRQARKLSLDELSRRAGVSKSMLSQVERNLANPTVAVLWRLATALGVGLADFLSP”: the “soluble fraction (log2)” value is -3.02.
Under “HMGPRVSAGPGRHRVQPGDTLDDIAARYRVSSRDLMLVNGLRNANHVEAGQTLKLPSNAVIA” stands 0.15; under “HMGPSLIRIASNPVAEVFIDGTRVGTTPFEMPADGTLKTVRLTAKDHDDLVVPLRSMKSMEIMLTLRRI”, -2.54.
As for “HMGPTLTDEEEVVLNLLEKNHPVLLSELKENAGLSNKKWDKAIKGLSAHKLAKVTKTDDGLFVHLS”, the figure is 0.615.
Regarding “HMGPTPTSAQLTEAKRLRTKLDDLNPELAERLWSEHREPYTETQYQTLIEKLAAEVQSAEGEIGR”, the “soluble fraction (log2)” value came out at 0.222.
Turning to “HMGPVRRDLEINGRMVPLTIREHARATRITLRIEPGGQALRLTIPPGLPTREVDSFLTRHHGWLMTKLAHI”, the “soluble fraction (log2)” value was -2.47.
As for “HMGPWTETAAKGDAVSKRMLITWLQENADAEFLAAQKLTGQATSVAKRVTKDQLVELYLSVTTAA”, the figure is -1.42.
On to “HMGQAAHYEGVKGDGESDTDVISRVLTAAGAEAQKDDIFVVKELIAGGKYSYTAYVYDGSVWAAM”, for which the “soluble fraction (log2)” value is -0.529.
As for “HMGQAEEVRYSTFLDEVRNGRIEQVVLQGEHIIGTRKDKTVFSVFNPETDYTALIGTLSKSGVTIEGRP”, the figure is 0.283.
For the sequence “HMGQARQSAIRELGNDPTSGKKITVRSGRYGPYVTDGEVNASLRKGDDPQTIDLDRAIELLAARREKLG”, the “soluble fraction (log2)” value is -0.148.
“HMGQDGFIGLEAAKKLVLQKLGLTSAEFIKAELDAEDRKYELELIVDGIEYDFDIDAYSGAFLKQEQETV”: the “soluble fraction (log2)” value is -0.519.
For “HMGQEEKDIFLKLINISGIGPKLALNILSGIEASELEEAVRNTNVTRLSMVPGIGQKTALRIIMELSDKLE”, the “soluble fraction (log2)” value is -0.298.
Under “HMGQELTMPDLKSMSRSNAEEKLKKMGLKLGAVFEENAKEPAGTVINQDPRSGSKITKGQTVDITVSLGEK” stands 0.265; under “HMGQERAVPDVKGQSFDMAQGNISRAGLKAVVTDSVYDSYARPGTVVEQSPIPLAKIKRGGTVYLTLVA”, -0.118.
Under “HMGQGSAFVYYEVLPKQTEYSLTRKLGLGYADLLSLNPQLARGLQAGMVLKIPRDKAGNLEVKNDLILE” stands -0.643; under “HMGQISLSVNAIPEKAEVILDGNSIGNTPIRKNTITPGSHMFEIEKKGYAPISYDIYVNPSKAINLDFFM”, -0.974; under “HMGQKDYKTRLQEYFAKQGLKVNYEDTSHGPDHNKNFSTDVFLDGKIIGSGIGKSKKSSQQSAAKDALNIL”, 0.473.
As for “HMGQLIGKEEAKQIALSRAGVAEGDISRYESELDTDDGKTKYEISFHVGRVEYDIEINAVTGAVEKFEMDN”, the figure is 0.587; as for “HMGQTDTIIKTTTDLYYEMSTMSDDDKLVVAQTLRDVWMAVGRWSGKLSKKQREKVAEVKRVLGE”, -0.866; as for “HMGQVAKPPLKELGADPVTGKPMVLKDGRFGPYVTDGEYNASLRKDDDIETIGVERAAELLQIRREKGP”, -0.252.
“HMGQVGIPFSDFLAEVENGQVREVVIKGNDISGTFNDNRGFSTYAPNDPNLVEKLTKRGVVINAQPTE”: the “soluble fraction (log2)” value amounted to 0.077.
As for “HMGQVSEAGELEVAADRVIAANPEAVTKYKSGNENILQFLVGQMMKETKGAANPQVAAEILRKKIV”, the “soluble fraction (log2)” value came to 0.065.
For “HMGRELDLNQRVYDFIHDIADEVRTDEGTFSANQMMERFLFPGDLQSVPIGRLSGGERRRLYLLSVLMVKI”, the “soluble fraction (log2)” value is -0.0184.
Under “HMGRFPSLTPVVIDALTAQYREHPGWTVQLHVDNLRVVLAANQTPLPSYPTIRRYLLAQGMRRQTRP” stands -0.396; under “HMGRLNMRRIRDVLRLKFGQGLSERQVAASLGLSKTSVGTYLHRARQAGLTWPLPQGLDDDGLELLLFP”, -1.69.
Under “HMGRMTRKDRALATDLYGRIVGNVDDFHEGRIDYETFSERQRGLWTTLDAAGPEVKRAVLADIRERL” stands -0.563; under “HMGRWQPSTSAKQHGESALLLERLLHLERLTVSEAFHVLTINHRLNLSLPEYRSLLAVVQLPK”, -1.8; under “HMGRYDWIEQIDDPVLAERLKHLTEDDLELLTRYVFEDATQKELASQYGIGQQSVSKRLKKLKSFLTK”, -0.355.
As for “HMGSATAPDLKGLTYEQAQTKAEDAGYNIEKGEDVYDNDVEKGKVASQDPEAGAEAKEGSVITVNISK”, the figure is -0.0215; as for “HMGSFAADVGRMVRLGRAKRGISRRKLAADSGISERYLAQIEGGQGNPSVNVLKAIADAISVPVFELLPH”, -1.74.
Turning to “HMGSFDDAPDQLRQSILQLLAEGPLPPSAITERLNISREDATEALQQLLDEQRIFAVNGMLQLQPG”, the “soluble fraction (log2)” value is -0.109.
As to “HMGSFTDKQIKQAFGVLNDPRFKQGNYDGAVAVINKIAPGLADHPSVANALKRANEATQDIAQQTQA”, the “soluble fraction (log2)” value came to 0.0868.
In the case of “HMGSGQIRYITENTVRVVYGTSKENEFVFQDGKPYPKDTPYHIHYTRNLEEYFMSGVEHDKNSKIILKVD”, the “soluble fraction (log2)” value is -0.946.
Under “HMGSGVNVTVNGKRMNLPLKDDHIIFVDIFNYIDFDLSKPKGSIVLKLNGRDAGYTDPIKDGDVIDIYWQ” stands -0.301; under “HMGSIDYLVGSRLRQYRRLRGYSLIEFSAMLHRSKSAISKYERGEVSIDLRTLNEMARLLDIPLSGLLL”, -4.56.
For “HMGSIEASFEEDVRRYLARKSMTTTEISKKMRQKRPDMSRDQLMTLLANAIKRIKPIKKKIKGTLYLSLE”, the “soluble fraction (log2)” value is -2.07.
On to “HMGSIMIIVLKENAPQQAAEKLMKEIRAKGLQIDVSKGTRKTVLGLVGDTSVIDMEHVQGYDYVDKVLRV”, for which the “soluble fraction (log2)” value was -1.11.
As for “HMGSKDLPFSTFMSEIDKGNITSVDIRGNEIQGTFANGTKFRTYSPNYPNLVEKLNGKGVSITAGPV”, the figure is 0.409; as for “HMGSKKITIYVSGEVKNPGIVTLNSDQRLASAVEKLGGVTENADMNNINLAMKLEDEMHYIIPKKGEK”, -0.0389; as for “HMGSKQVSVPDVRNLDYERASQQLREAGFVVGDVLRIRDDRAPAGTVIAQSPAAPALVPENARVSLLVSSG”, 0.124.
Under “HMGSLAVVPSLTGKTLQEAQSKAADYGLALEIEGYVASTAVDYGRIVSQSPDAGFSVKSGSSVKVSVSAG” stands -0.0619; under “HMGSLGRAIRSRREKMKVGLEELAAKTGLSESHISDIEEGRGFAPVGDILKIARALTIDPGELLK”, 0.49; under “HMGSLGSLLKSVRNQRGLSRQQMAQSLNIGVRAIEQIEEGERKPDLELLNRYARGLMDPSVT”, -0.166.
As for “HMGSLKEKIVLLEKLYQQNPSEEIKLLLINTYQLNHQYIQARKLFFTLTPEQKEKLPLASEFLIFL”, the “soluble fraction (log2)” value was -1.04.
In the case of “HMGSLNDQVMKYIDALPSAFNKRELDFLIERGVKEFALNGEYLEKAIINEYKLTADTYHRER”, the “soluble fraction (log2)” value worked out at 0.0903.
Under “HMGSLQPLLLAAIDALQTHIRSGLPFRVEERLAELDQFRTELQNGSVPPQRGVNRLWAFYEDEFRL” stands -1.06; under “HMGSLRSALDGIPGIGEQYQKRLLAQFGSVKAMRSASVEDFEAVRGIGRAKAQALYDALHAG”, -0.221.
